# According to patent EP3366704A1 (Affimed GmbH, dated 2018):
# What was measured:
# [1] = target: T1, MMP1-003 peptide/HLA-A2 complex (on MMP1-003 peptide-pulsed T2 cells or HLA-A2+/MMP1+ tumor cells) (human); test: cell-based or functional assay
# [2] = target: T2, CD16A (FcgammaRIIIA) on primary human NK-cells (human, UniProt P08637 17-254); test: flow cytometry on primary human NK-cells, on ice, one-site binding fit, mean of two experiments
# T2 construct: whole, on cells; also called CD16^+ NK-cells; CD16A^+ cells
# [3] = target: T1, MMP1-003 peptide/HLA-A2 complex (on …); test: cell-based or functional assay; remark: listed apart in the source
# [4] = target: T1, MMP1-003 peptide/HLA-A2 complex (on …); test: flow cytometry on MMP1-003 peptide-pulsed T2 cells
# [5] = target: T1, MMP1-003 peptide/HLA-A2 complex (on …); test: cell-based or functional assay; remark: listed apart in the source
# [6] = target: T3, human CD3 (on Jurkat cells or primary human T-cells) (human, UniProt P07766 23-207); test: flow cytometry on human CD3+ Jurkat cells, on ice, one-site binding fit, mean of 2 experiments
# T3 construct: whole, on cells; CD3 is a complex of several chains; also called Human CD3^+ Jurkat; Human CD3^+ primary T-cells
# [7] = target: T1, MMP1-003 peptide/HLA-A2 complex (on …); test: cell-based or functional assay; remark: listed apart in the source
# [8] = target: T3, human CD3 (on Jurkat cells or primary …); test: flow cytometry on human CD3+ primary T-cells, on ice, one-site binding fit, mean of 2 experiments
# [9] = target: T1, MMP1-003 peptide/HLA-A2 complex (on …); test: flow cytometry on MMP1-003 peptide-pulsed T2 cells, mean of two experiments
# [10] = target: T4, cynomolgus CD3 (on HSC-F cells) (cynomolgus, UniProt Q95LI5 22-198); test: flow cytometry on cynomolgus CD3+ HSC-F cells, on ice, one-site binding fit, mean of 2 experiments
# T4 construct: whole, on cells; CD3 is a complex of several chains; also called Cyno CD3^+ HSC-F
# [11] = target: T3, human CD3 (on Jurkat cells or primary …); test: flow cytometry on human CD3+ Jurkat cells, on ice
# [12] = target: T4, cynomolgus CD3 (on HSC-F cells); test: flow cytometry on cynomolgus CD3+ HSC-F cells, on ice
# T2 sequence (P08637 17-254): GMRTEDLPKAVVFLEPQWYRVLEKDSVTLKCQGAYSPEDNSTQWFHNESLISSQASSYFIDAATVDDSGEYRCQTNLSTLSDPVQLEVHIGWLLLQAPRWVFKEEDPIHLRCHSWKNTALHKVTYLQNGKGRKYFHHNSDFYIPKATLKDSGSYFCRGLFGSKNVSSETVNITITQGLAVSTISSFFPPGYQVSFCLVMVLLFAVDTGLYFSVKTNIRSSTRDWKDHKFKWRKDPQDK
# T3 sequence (P07766 23-207): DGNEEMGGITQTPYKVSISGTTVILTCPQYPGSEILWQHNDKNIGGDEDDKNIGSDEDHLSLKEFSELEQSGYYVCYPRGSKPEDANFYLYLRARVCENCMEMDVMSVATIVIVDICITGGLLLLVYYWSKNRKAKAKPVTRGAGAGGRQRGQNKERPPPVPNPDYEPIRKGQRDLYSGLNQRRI
# T4 sequence (Q95LI5 22-198): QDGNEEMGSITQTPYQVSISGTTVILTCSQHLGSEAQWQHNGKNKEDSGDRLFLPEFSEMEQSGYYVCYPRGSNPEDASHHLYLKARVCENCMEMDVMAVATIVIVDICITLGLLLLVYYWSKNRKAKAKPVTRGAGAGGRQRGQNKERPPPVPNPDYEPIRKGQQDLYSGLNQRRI
binder,measurement,setting,value
"TandAbCD16A 4 (anti-HLA-A2^MMP1-003/CD16A tandem diabody, target domain B05, variant 4) (bispecific antibody, Non-covalent homodimer; C-terminal 6xHis tag) QVQLVQSGAEAKKPGESLRISCRASGYMFSTFWIGWVRQMPGKGLEWVASIYPGDSNTIYSPSFQGQVTISADKSINTTYLQWSGLKASDTATYYCAKIRDGYSYDAFDLWGQGTMVTVSSGGSGGSGGSSYVLTQPSSVSVAPGQTATISCGGHNIGSKNVHWYQQRPGQSPVLVIYQDNKRPSGIPERFSGSNSGNTATLTISGTQAMDEADYYCQVWDNYSVLFGGGTKLTVLGGSGGSQVQLVQSGAEVKKPGESLKVSCKASGYTFTSYYMHWVRQAPGQGLEWMGAIEPMYGSTSYAQKFQGRVTMTRDTSTSTVYMELSSLRSEDTAVYYCARGSAYYYDFADYWGQGTLVTVSSGGSGGSGGSQSALTQPASVSGSPGQSITISCTGTSSDVGGYNYVSWYQQHPGKAPKLMIYDVSNRPSGVSNRFSGSKSGNTASLTISGLQAEDEADYYCSSYTSSSTLAYVFGTGTKLTVLAAAGSHHHHHH","Mean EC50 of target cell lysis, 4 h calcein-release assay, B-CPAP (HLA-A2+/MMP1+), human NK-cells E:T 5:1",[1],4.8 nM
same,"Mean EC50 of target cell lysis, 4 h calcein-release assay, SW-982 (HLA-A2+/MMP1+), human NK-cells E:T 5:1",[1],4.67 nM
same,Kd,[2],5.3 nM
same,"Mean EC50 of target cell lysis, 4 h calcein-release assay, MMP1-003-pulsed T2 cells, human NK-cells E:T 5:1",[3],0.0088 nM
"TandAbCD3 1 (anti-HLA-A2^MMP1-003/CD3 tandem diabody, target domain B05) (bispecific antibody, Non-covalent homodimer of two identical polypeptides; Constructs carry a C-terminal 6xHis tag and an N-terminal signal peptide; also called TandAbCD3 1 T714; TandAb 1) DIQMTQSPSSLSASVGDRVTITCRSSTGAVTTSNYANWVQQKPGKAPKALIGGTNKRAPGVPSRFSGSLIGDKATLTISSLQPEDFATYYCALWYSNLWVFGQGTKVEIKGGSGGSQVQLVQSGAEAKKPGESLRISCRASGYMFSTFWIGWVRQMPGKGLEWVASIYPGDSNTIYSPSFQGQVTISADKSINTTYLQWSGLKASDTATYYCAKIRDGYSYDAFDLWGQGTMVTVSSGGSGQSALTQPASVSGSPGQSITISCTGTSSDVGGYNYVSWYQQHPGKAPKLMIYDVSNRPSGVSNRFSGSKSGNTASLTISGLQAEDEADYYCSSYTSSSTLAYVFGTGTKLTVLGGSGGSEVQLVESGGGLVQPGGSLRLSCAASGFTFSTYAMNWVRQAPGKGLEWVGRIRSKYNNYATYYADSVKDRFTISRDDSKNSLYLQMNSLKTEDTAVYYCARHGNFGNSYVSYFAYWGQGTLVTVSSAAAGSHHHHHH",fold higher apparent affinity relative to the B05 single chain Fv (scFv),[4],> 200 fold
same,"Mean EC50 of target cell lysis, 4 h calcein-release assay, B-CPAP (HLA-A2+/MMP1+), human T-cells E:T 25:1",[5],0.237 nM
same,"Mean EC50 of target cell lysis, 4 h calcein-release assay, SW-982 (HLA-A2+/MMP1+), human T-cells E:T 25:1",[5],0.156 nM
same,Kd,[6],1.1 nM
same,"EC50 of target cell lysis, 4 h calcein-release cytotoxicity assay, MMP1-003-pulsed T2 cells, human T-cells E:T 25:1",[7],0.0007 nM
same,Kd,[8],1.7 nM
same,Kd,[9],3 nM
same,Kd,[10],1.3 nM
"TandAbCD16A 1 (anti-HLA-A2^MMP1-003/CD16A tandem diabody, target domain A02, variant 2) (bispecific antibody, Non-covalent homodimer; Variant 2: VH(CD16A)-L1-VL(A02)-L2-VH(A02)-L3-VL(CD16A); C-terminal 6xHis tag) QVQLVQSGAEVKKPGESLKVSCKASGYTFTSYYMHWVRQAPGQGLEWMGAIEPMYGSTSYAQKFQGRVTMTRDTSTSTVYMELSSLRSEDTAVYYCARGSAYYYDFADYWGQGTLVTVSSGGSGGSGGSSYELTQPPSVSVSPGQTASITCSGDKLGDKYASWYQRKPGQSPVLLIYQDAKRPSGIPERFSGSNSGNTATLTISGTQAMDEADYYCQAWDSSTGVFGGGTKLTVLGGSGGSEVQLVESGGGVVQPGRSLRLSCAASGFTFSSYAMHWVRQAPGKGLEWVAVISYDGSNKYYADSVKGRFTISRDNSKNTLYLQMNSLRTEDTAVYYCARDGGYYHYGLDVWGQGTTVTVSSGGSGGSGGSSYVLTQPSSVSVAPGQTATISCGGHNIGSKNVHWYQQRPGQSPVLVIYQDNKRPSGIPERFSGSNSGNTATLTISGTQAMDEADYYCQVWDNYSVLFGGGTKLTVLAAAGSHHHHHH","Mean EC50 of target cell lysis, 4 h calcein-release assay, B-CPAP (HLA-A2+/MMP1+), human NK-cells E:T 5:1",[1],2.61 nM
same,"Mean EC50 of target cell lysis, 4 h calcein-release assay, SW-982 (HLA-A2+/MMP1+), human NK-cells E:T 5:1",[1],4.29 nM
same,Kd,[2],5.1 nM
same,"Mean EC50 of target cell lysis, 4 h calcein-release assay, MMP1-003-pulsed T2 cells, human NK-cells E:T 5:1",[3],0.0147 nM
"TandAbCD16A 3 (anti-HLA-A2^MMP1-003/CD16A tandem diabody, target domain A02, variant 4) (bispecific antibody, Non-covalent homodimer; Variant 4: VH(A02)-L1-VL(CD16A)-L2-VH(CD16A)-L3-VL(A02); C-terminal 6xHis tag) EVQLVESGGGVVQPGRSLRLSCAASGFTFSSYAMHWVRQAPGKGLEWVAVISYDGSNKYYADSVKGRFTISRDNSKNTLYLQMNSLRTEDTAVYYCARDGGYYHYGLDVWGQGTTVTVSSGGSGGSGGSSYVLTQPSSVSVAPGQTATISCGGHNIGSKNVHWYQQRPGQSPVLVIYQDNKRPSGIPERFSGSNSGNTATLTISGTQAMDEADYYCQVWDNYSVLFGGGTKLTVLGGSGGSQVQLVQSGAEVKKPGESLKVSCKASGYTFTSYYMHWVRQAPGQGLEWMGAIEPMYGSTSYAQKFQGRVTMTRDTSTSTVYMELSSLRSEDTAVYYCARGSAYYYDFADYWGQGTLVTVSSGGSGGSGGSSYELTQPPSVSVSPGQTASITCSGDKLGDKYASWYQRKPGQSPVLLIYQDAKRPSGIPERFSGSNSGNTATLTISGTQAMDEADYYCQAWDSSTGVFGGGTKLTVLAAAGSHHHHHH","Mean EC50 of target cell lysis, 4 h calcein-release assay, B-CPAP (HLA-A2+/MMP1+), human NK-cells E:T 5:1",[1],0.996 nM
same,"Mean EC50 of target cell lysis, 4 h calcein-release assay, SW-982 (HLA-A2+/MMP1+), human NK-cells E:T 5:1",[1],1.16 nM
same,Kd,[2],3.1 nM
same,"Mean EC50 of target cell lysis, 4 h calcein-release assay, MMP1-003-pulsed T2 cells, human NK-cells E:T 5:1",[3],0.0057 nM
"TandAbCD16A 2 (anti-HLA-A2^MMP1-003/CD16A tandem diabody, target domain B05, variant 2) (bispecific antibody, Non-covalent homodimer; C-terminal 6xHis tag) QVQLVQSGAEVKKPGESLKVSCKASGYTFTSYYMHWVRQAPGQGLEWMGAIEPMYGSTSYAQKFQGRVTMTRDTSTSTVYMELSSLRSEDTAVYYCARGSAYYYDFADYWGQGTLVTVSSGGSGGSGGSQSALTQPASVSGSPGQSITISCTGTSSDVGGYNYVSWYQQHPGKAPKLMIYDVSNRPSGVSNRFSGSKSGNTASLTISGLQAEDEADYYCSSYTSSSTLAYVFGTGTKLTVLGGSGGSQVQLVQSGAEAKKPGESLRISCRASGYMFSTFWIGWVRQMPGKGLEWVASIYPGDSNTIYSPSFQGQVTISADKSINTTYLQWSGLKASDTATYYCAKIRDGYSYDAFDLWGQGTMVTVSSGGSGGSGGSSYVLTQPSSVSVAPGQTATISCGGHNIGSKNVHWYQQRPGQSPVLVIYQDNKRPSGIPERFSGSNSGNTATLTISGTQAMDEADYYCQVWDNYSVLFGGGTKLTVLAAAGSHHHHHH","Mean EC50 of target cell lysis, 4 h calcein-release assay, B-CPAP (HLA-A2+/MMP1+), human NK-cells E:T 5:1",[1],1.69 nM
same,"Mean EC50 of target cell lysis, 4 h calcein-release assay, SW-982 (HLA-A2+/MMP1+), human NK-cells E:T 5:1",[1],2.86 nM
same,Kd,[2],3.7 nM
same,"Mean EC50 of target cell lysis, 4 h calcein-release assay, MMP1-003-pulsed T2 cells, human NK-cells E:T 5:1",[3],0.0209 nM
"scFv B05 (anti-HLA-A2^MMP1-003 single chain Fv) (scFv, also called B05 scFv; scFv_202.S) scFv: QVQLVQSGAEAKKPGESLRISCRASGYMFSTFWIGWVRQMPGKGLEWVASIYPGDSNTIYSPSFQGQVTISADKSINTTYLQWSGLKASDTATYYCAKIRDGYSYDAFDLWGQGTMVTVSSGGSGGSGGSGGSGGSGGSQSALTQPASVSGSPGQSITISCTGTSSDVGGYNYVSWYQQHPGKAPKLMIYDVSNRPSGVSNRFSGSKSGNTASLTISGLQAEDEADYYCSSYTSSSTLAYVFGTGTKLTVLAAAGSEQKLISEEDLNSHHHHHH",binding result,[11],no binding
same,binding result,[12],no binding
same,Kd,[9],616 nM
"scFv A02 (anti-HLA-A2^MMP1-003 single chain Fv) (scFv, also called A02 scFv; scFv_203.S) scFv: EVQLVESGGGVVQPGRSLRLSCAASGFTFSSYAMHWVRQAPGKGLEWVAVISYDGSNKYYADSVKGRFTISRDNSKNTLYLQMNSLRTEDTAVYYCARDGGYYHYGLDVWGQGTTVTVSSGGSGGSGGSGGSGGSGGSSYELTQPPSVSVSPGQTASITCSGDKLGDKYASWYQRKPGQSPVLLIYQDAKRPSGIPERFSGSNSGNTATLTISGTQAMDEADYYCQAWDSSTGVFGGGTKLTVLAAAGSEQKLISEEDLNSHHHHHH",binding result,[11],no binding
same,binding result,[12],no binding
same,Kd,[9],108 nM
